Test results reported in PMC8933513 (2022).

What was measured:
[1] = biological target: human aminopeptidase N (hAPN) ectodomain, residues 62-963, wild type (UniProt P15144); assay: SPR; […], room temperature; […] (0.01 M HEPES, 0.15 M NaCl, 0.5% surfactant P20, 3 mM EDTA, pH 7.4); […]
[2] = biological target: porcine aminopeptidase N (pAPN) ectodomain, residues 58-961, wild type (pig) (UniProt P15145); assay: as above
Sequence of porcine aminopeptidase N (pAPN) ectodomain, residues 58-961, wild type (pig) (P15145 58-961): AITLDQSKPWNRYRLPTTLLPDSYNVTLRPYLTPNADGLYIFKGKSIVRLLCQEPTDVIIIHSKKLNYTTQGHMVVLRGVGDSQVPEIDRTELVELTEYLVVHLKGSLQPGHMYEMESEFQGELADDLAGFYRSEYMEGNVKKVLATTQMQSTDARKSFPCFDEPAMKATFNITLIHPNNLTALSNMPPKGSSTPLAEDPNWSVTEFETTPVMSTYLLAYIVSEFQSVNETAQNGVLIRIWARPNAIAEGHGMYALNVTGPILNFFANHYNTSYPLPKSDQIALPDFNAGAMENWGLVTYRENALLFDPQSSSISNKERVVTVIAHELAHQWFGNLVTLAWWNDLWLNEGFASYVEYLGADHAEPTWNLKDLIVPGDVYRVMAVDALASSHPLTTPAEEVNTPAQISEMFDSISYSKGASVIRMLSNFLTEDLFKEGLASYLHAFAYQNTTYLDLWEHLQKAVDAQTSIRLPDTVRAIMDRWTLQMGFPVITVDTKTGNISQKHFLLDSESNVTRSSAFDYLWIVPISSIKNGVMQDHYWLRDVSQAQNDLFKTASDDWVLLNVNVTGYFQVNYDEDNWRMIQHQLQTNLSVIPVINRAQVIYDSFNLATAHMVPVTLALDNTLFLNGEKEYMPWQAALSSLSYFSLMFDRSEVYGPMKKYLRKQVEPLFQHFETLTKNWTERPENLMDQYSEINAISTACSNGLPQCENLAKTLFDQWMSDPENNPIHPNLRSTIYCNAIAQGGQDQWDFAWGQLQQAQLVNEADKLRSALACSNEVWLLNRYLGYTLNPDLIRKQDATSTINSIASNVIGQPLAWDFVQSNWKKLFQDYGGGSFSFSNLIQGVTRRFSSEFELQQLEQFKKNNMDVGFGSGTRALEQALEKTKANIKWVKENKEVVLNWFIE

Sequence of human aminopeptidase N (hAPN) ectodomain, residues 62-963, wild type (P15144 62-963): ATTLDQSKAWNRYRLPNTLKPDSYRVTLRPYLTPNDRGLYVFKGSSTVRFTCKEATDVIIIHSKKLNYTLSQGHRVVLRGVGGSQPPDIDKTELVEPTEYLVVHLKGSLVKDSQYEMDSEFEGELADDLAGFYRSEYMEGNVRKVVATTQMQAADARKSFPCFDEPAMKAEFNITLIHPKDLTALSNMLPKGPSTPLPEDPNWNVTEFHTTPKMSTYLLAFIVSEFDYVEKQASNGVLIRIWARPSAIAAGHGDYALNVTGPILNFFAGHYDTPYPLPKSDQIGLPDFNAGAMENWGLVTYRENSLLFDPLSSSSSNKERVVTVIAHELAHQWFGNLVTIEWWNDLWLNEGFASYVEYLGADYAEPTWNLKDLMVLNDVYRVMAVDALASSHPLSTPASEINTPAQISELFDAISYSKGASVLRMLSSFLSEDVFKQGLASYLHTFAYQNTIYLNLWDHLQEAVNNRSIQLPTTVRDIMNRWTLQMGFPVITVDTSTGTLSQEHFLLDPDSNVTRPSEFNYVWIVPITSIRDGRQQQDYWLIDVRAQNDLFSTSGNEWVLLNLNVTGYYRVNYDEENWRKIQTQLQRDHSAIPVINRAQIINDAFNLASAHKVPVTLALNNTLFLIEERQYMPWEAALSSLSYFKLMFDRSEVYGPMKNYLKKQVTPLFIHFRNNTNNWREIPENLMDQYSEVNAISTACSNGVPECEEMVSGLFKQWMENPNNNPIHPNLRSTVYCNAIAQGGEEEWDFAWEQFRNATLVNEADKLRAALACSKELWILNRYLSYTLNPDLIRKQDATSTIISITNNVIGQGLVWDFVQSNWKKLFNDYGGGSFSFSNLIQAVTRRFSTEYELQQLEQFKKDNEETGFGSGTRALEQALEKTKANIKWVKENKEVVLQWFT

“PDCoV RBD with mutation of residues F318, E320, R322, R357, and Y398” was tested, and the fold decrease in affinity against wild-type PDCoV RBD [1] was 5 to 150 fold and the fold decrease in affinity against wild-type PDCoV RBD [2] was 5 to 150 fold.
